Assay [1] addresses T1, anti-VEGF/ANG2 antibody (IgG1 subclass with mutations P329G/L234A/L235A/I253A/H310A/H435A).
T1 construct: Format of the bispecific antibody not described; Positions are EU numbers, not positions on the UniProt entry; also called sample 1; antibody 1
Nature of the assay: bridging ELISA, target-Bi capture and target-Dig tracer, binder 125 ng/mL, against the blank. As for the experimental part: A dilution series of the monomeric full-length anti-PG Fc-region antibody clone 1.3.17 was prepared as standards for checking the possibility of generating a standard curve.
Biotinylated anti-VEGF/ANG2 antibody with the mutations P329G, L234A, L235A, I253A, H310A, and H435A and digoxygenylated anti-VEGF/ANG2 antibody with the mutations P329G, L234A, L235A, 1253A, H310A, and H435A were pre-incubated with the standards overnight at room temperature. After pre-incubation, the samples were transferred to a streptavidin-coated multi-well plate and incubated for 1 hour at room temperature. Excess of unbound antibody was removed by washing. After a washing step the bound digoxygenylated complexes comprising biotinylated and digoxygenylated anti-VEGF/ANG2 antibody with the mutations P329G, L234A, L235A, 1253A, H310A, and H435A as well as the monomeric, full-length anti-PG Fc-region antibody M1.3.17 (SEQ ID NO: 03 and 04) were detected with an horseradish peroxidase (HRP) labelled anti-digoxygenin-antibody. After a washing step and upon incubation with the respective substrate the HRP present in the formed complex catalyzes the conversion of ABTS into a colored product. The signal was measured by Elisa reader at 405 nm wavelength (reference wavelength: 490 nm). Absorbance values of each serum sample were determined in triplicates.

Assay [2] concerns the target T2, anti-VEGF/ANG2 antibody (wild-type IgG1 subclass) (UniProt P01857-1 1-330 = IgG part).
T2 construct: also called sample 5; antibody 5
Nature of the assay: ELISA assay C, tracer FcγRI-Dig, target 25 ng/mL. Background: ELISA stands for enzyme-linked immunosorbent assay.

In assay [3] the target is T3, anti-P-Selectin antibody (IgG4 subclass with mutations S228P/L235E).
T3 construct: Positions are EU numbers; also called sample 4; antibody 4
Nature of the assay: ELISA assay C, tracer FcγRI-Dig, target 25 ng/mL.

The target of assay [4] is T4, anti-VEGF/ANG2 antibody (IgG1 subclass with mutations P329G/L234A/L235A).
T4 construct: Positions are EU numbers; also called sample 2; antibody 2
The assay is described as follows: ELISA assay C, tracer FcγRI-Dig, target 25 ng/mL.

Assay [5] has as its target T1, anti-VEGF/ANG2 antibody (IgG1 subclass …). The assay is described as follows: ELISA assay C, tracer FcγRI-Dig, target 25 ng/mL.
In assay [6] the target is T5, anti-IGF-1R antibody (IgG1 subclass with mutations I253A/H310A/H435A).
T5 construct: Positions are EU numbers; also called sample 3; antibody 3
Nature of the assay: ELISA assay C, tracer FcγRI-Dig, target 25 ng/mL.

Assay [7] deals with T2, anti-VEGF/ANG2 antibody (wild-type IgG1 …). Nature of the assay: ELISA assay B, tracer M1.7.10-Dig, target 50 ng/mL. Here is the method: (§1) Biotinylated anti-PG Fc-region antibody or biotinylated anti-AAA Fc-region antibody, respectively, was bound to the wells of a streptavidin-coated multi-well plate (SA-MTP) to produce a capture plate. Excess of unbound antibody was removed by washing. Sample/standard antibodies spiked in human and cynomolgus monkey serum (10% final concentration) was added to wells of the SA-MTP multi-well plate coated with the capture plate and incubated for 1 hour at room temperature. After washing, the wells were incubated with digoxygenylated anti-human kappa antibody M1.7.10 (see e.g. WO 2011/048043, incorporated herein by reference). After washing the bound digoxygenylated anti-human kappa antibody complex was incubated with a horseradish peroxidase (HRP) labelled anti-digoxygenin antibody. After another washing step, an ABTS solution was added to the wells and incubated. The product of the color reaction was measured by Elisa reader at 405 nm wavelength (reference wavelength: 490 nm). Absorbance values of each sample or standard were determined in triplicates.

In assay [8] the target is T3, anti-P-Selectin antibody (IgG4 subclass …). Nature of the assay: ELISA assay B, tracer M1.7.10-Dig, target 50 ng/mL. Here is the method:
as §1

The target in assay [9] is T4, anti-VEGF/ANG2 antibody (IgG1 subclass …). Nature of the assay: ELISA assay B, tracer M1.7.10-Dig, target 50 ng/mL. Here is the method: as §1
The target in assay [10] is T1, anti-VEGF/ANG2 antibody (IgG1 subclass …). Nature of the assay: ELISA assay B, tracer M1.7.10-Dig, target 50 ng/mL. As for the experimental part: as §1
Assay [11] has as its target T5, anti-IGF-1R antibody (IgG1 subclass …). Nature of the assay: ELISA assay B, tracer M1.7.10-Dig, target 50 ng/mL. As for the experimental part:
as §1

In assay [12] the target is T6, drug antibody (capture and tracer of the bridging immunoassay of FIGS. 2, 7 and 8; not named).
T6 construct: also called the same but differently derivatized drug antibodies
The assay is described as follows: bridging immunoassay, drug antibody as capture and tracer, binder at 1000 ng/mL.

Assay [13] deals with T6, drug antibody (capture and tracer of …). The assay is described as follows: bridging immunoassay, drug antibody as capture and tracer, binder at 2,500 ng/ml.

Changes are numbered by the printed parent chain. A value given as a limit tells only on which side of the number the result lay.

B1: anti-PG variant Fc-region antibody M1.3.17 (antibody, V domains shown)
VH: EVKLLESGGGLVQPGGSLKLSCAASGIDFRRYWMNWVRQAPGKGLEWIGEIDPDSSTINYTPSLKDKFIISRDNAKNTMYLQMRKVRSEDTALYYCARPYDYGAWFAYWGQGTLVTVSA
VL: QAVVTQESALTTSPGETVTLTCRSTTGAVTTSNYANWVQEKPDHLFTGLIGGTNKRAPGVPARFSGSLIGDKAALTITGAQTEDEAIYFCALWYSDHWVFGGGTKLTVL
notes: Monomeric, bivalent full-length antibody with murine variable domains; Biotinylated when used as capture antibody; also called anti-PG antibody clone 1.3.17; M1.3.17-Bi
Turning to B1, the “signal to noise ratio” value in assay [1] turned out to be 1.85. Further, the “signal [OD405 nm]” value in [2] was found to be 1.16 OD405 nm; in [3] it was 1.17 OD405 nm; in [4] it was 1.21 OD405 nm; in [5], 1.07 OD405 nm; in assay [6], 1.2 OD405 nm; in [7] it was 0.042 OD405 nm. Besides, the “signal [OD405 nm]” value in [8] is 0.049 OD405 nm; in assay [9] it was 0.215 OD405 nm; in assay [10], 0.035 OD405 nm; in assay [11], 0.048 OD405 nm.

B2: anti-PG variant Fc-region antibody M1.7.24 (monomeric, bivalent) (antibody, V domains shown)
VH: B1 VH with I27F, R30S, D52T, M79L, R84I, A97V, Y108S
VL: B1 VL with T25S, D96N
notes: Full-length Y-shaped antibody with murine variable domains; Biotinylated when used as capture antibody; also called anti-PG antibody clone 1.7.24; M1.7.24-Bi
Turning to B2, the “signal-to-noise ratio (S/N)” value in assay [12] is 3.8. In assay [13], the signal-to-noise ratio was more than 2. Moreover, the “signal [OD405 nm]” value came to 0.063 OD405 nm in assay [2]; 0.07 OD405 nm in [3]; 0.083 OD405 nm in assay [4]; 0.082 OD405 nm in assay [5]; 0.073 OD405 nm in assay [6]; 0.04 OD405 nm in [7]. Further, the “signal [OD405 nm]” value in [8] was 0.043 OD405 nm; in [9], 3.17 OD405 nm; in assay [10], 0.06 OD405 nm; in [11] it was 0.064 OD405 nm.

B3: anti-AAA variant Fc-region antibody M1.6.22 (antibody, V domains shown)
VH: EVQLVESGGDLVKPGGSLKLSCAASGFTFSSYGMSWVRQTPDKRLEWVATISSGGSYIYYPDSVKGRFTISRDNAKNTLYLQMSSLKSEDTAMYYCARLGMITTGYAMDYWGQGTSVTVSS
VL: DVLMTQTPLSLPVSLGDQASISCRSSQTIVHSTGHTYLEWFLQKPGQSPKLLIYKVSNRFSGVPDRFSGSGSGTDFTLKISRVEAEDLGVYYCFQGSHVPYTFGGGTKLEIK
notes: Murine variable domains; also called M1.6.22-Bi
Turning to B3, the “signal [OD405 nm]” value turned out to be 0.066 OD405 nm in [2]; 0.06 OD405 nm in [3]; 0.063 OD405 nm in [4]; 0.081 OD405 nm in [5]; 0.401 OD405 nm in [6]; 0.049 OD405 nm in assay [7]. In addition, the “signal [OD405 nm]” value in assay [8] worked out at 0.047 OD405 nm; in assay [9], 0.127 OD405 nm; in assay [10], 0.05 OD405 nm; in [11], 2.9 OD405 nm.

For the origin of these results see US20240410900A1 (Hoffmann-La Roche, published 2024).
